Reference: PMC9088798, “An Approach to Derive Functional Peptide Inhibitors of Transcription Factor Activity” (JACS Au, 2022)

Assays:
cJun bZIP domain [1] = target: cJun bZIP domain (UniProt P05412)
cJun bZIP domain [2] = target: cJun bZIP domain (UniProt P05412); remark: listed apart in the source
cJun bZIP domain [3] = target: cJun bZIP domain (UniProt P05412); remark: listed apart in the source
cJun bZIP domain [4] = target: cJun bZIP domain (UniProt P05412); assay: ITC; antagonist peptide injected into cJun; single-site binding model
cJun bZIP domain [5] = target: cJun bZIP domain (UniProt P05412); assay: circular dichroism thermal denaturation; loss of CD signal at 222 nm with temperature; total peptide 10 μM, equimolar components
cJun bZIP domain [6] = target: cJun bZIP domain (UniProt P05412); assay: circular dichroism spectra; CD spectra at 20 °C; heterodimeric sample compared with the average of the component spectra; total peptide 10 μM, equimolar components

Chain of cJun bZIP domain (P05412 252-315): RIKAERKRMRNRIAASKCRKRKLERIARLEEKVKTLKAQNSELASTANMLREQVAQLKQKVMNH

TBS assay in E. coli: colony numbers relative to TRE-mDHFR only (removal of the cJun transcriptional block) (cJun bZIP domain [1]) [%] | IC50 of reversal of the TRE DNA CD peak shift at ~281 nm (cJun 20 μM, TRE DNA 5 μM); blocks cJun binding to TRE DNA (cJun bZIP domain [2]) [µM] | IC50 of restoration of the free TRE DNA band in EMSA (cJun bZIP 20 μM, TRE DNA 2 μM); blocks cJun binding to TRE DNA (cJun bZIP domain [3]) [µM] | Kd (cJun bZIP domain [4]) [µM] | dH (cJun bZIP domain [4]) [kcal/mol] | stoichiometry N (cJun bZIP domain [4]) | Tm of the heterodimer (cJun bZIP domain [5]) [°C] | ΔTm of the heterodimer against the average of the component denaturation profiles (cJun bZIP domain [5]) [°C] | increase in α-helical content over the average of the component spectra (cJun bZIP domain [6]) [%] | IC50 of reversal of the TRE DNA CD peak shift at ~281 nm; blocks cJun binding to TRE DNA (cJun bZIP domain [2]) [µM] | Substance
60 | 16 | 12.1 | 0.0883 | -36.5 | 1.04 | 69.9 | 27.5 | 39 | – | A-FosW (designed binder)
– | – | – | – | – | – | 54 | – | – | 120 | FosW (designed binder)
